In the supplement of paper PMC10567573:

B1: MFF (parent)
chain: MAEISRIQYEMEYTEGISQRMRVP
B2: FBXO3 (parent)
chain: DEEERRRRVFDVPIRRRRCSRLF

Variants of: B1
Assay: protein stability index of a GFP-peptide fusion (GPS, HEK-293T) (PSI 1-6); higher = more stable
Details: c terminus: a fixed tail appended
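Also: lentivirally expressed fusions sorted by FACS into six bins by GFP to DsRed ratio, PSI derived from sequencing read proportions per bin multiplied by bin number.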

Protein stability index of substitutions, site by site:
E3: N 2.41, F 1.76, M 1.91, W 1.57, K 2.3, Y 2.01, P 3.31, R 2.39, Q 2.07, I 1.7, C 2.45, A 1.85, T 2.07, G 2.96, L 1.77, H 2.93, D 2.58, S 1.85, V 1.98
I4: H 3.34, A 3.38, W 2.89, Y 2.8, P 3.55, Q 3.8, V 2.74, G 3.4, R 3.31, E 4.08, M 3.56, S 3.42, K 3.58, N 3.71, T 3.86, D 3.41, F 2.56, L 2.99, C 3.6
A2: W 1.51, S 2.5, L 1.86, I 2.17, F 1.58, K 2.77, Y 1.95, E 3.33, V 1.96, C 2.25, R 2.54, M 2.03, G 3.03, Q 2.76, H 2.45, N 3.09, D 2.83, P 3.33, T 2.74
S5: R 2.75, K 2.17, A 1.72, T 2.02, E 2.95, Y 1.6, Q 2.36, N 2.53, H 2.47, M 1.34, W 2.46, I 2.11, F 1.71, V 2.02, D 3.39, C 1.88, L 2.17, G 2.27, P 3.52
R6: C 2.97, P 3.36, G 3.36, D 3.28, I 1.63, M 2.41, Q 3.34, L 1.71, K 3.15, V 2.03, S 3.37, F 2.06, Y 1.53, N 3.27, A 3.16, H 3, E 3.42, T 2.93, W 1.95
M1: Q 3.56, L 2.55, Y 1.9, R 3.1, V 2.85, W 2.35, E 4.04, I 2.36, N 3.16, S 3.01, A 2.92, G 3.14, D 3.56, F 1.97, C 1.85, H 2.92, T 3.28, P 3.45, K 2.97

Variants of: B2
Assay: as above
Details: c terminus: native

Protein stability index of substitutions, site by site:
R15: Y 1.88, H 1.85, F 1.93, G 2.74, I 2.31, M 1.72, V 2.78, T 2.72, P 2.56, L 1.98, E 2.44, C 2.99, K 3.65, Q 2.27, D 2.27, A 2.88, S 2.39, N 2.21
F23: R 3.91, I 1.85, T 2.4, H 2.77, M 2.45, A 1.35, N 2.48, Q 2.98, S 1.03, Y 3.25, L 4.08, P 2.6, W 3.56, V 3.28, K 4.1, D 2.71, C 2.65, G 2.86
P13: Y 2.8, Q 2.2, R 1.72, A 2.46, V 2.89, L 3.65, T 1.44, H 2.95, W 2.87, K 2.9, E 2.15, M 2.19, S 2.23, G 2.24, N 2.07, C 2.98, F 3.42, D 2.15
S20: R 3.35, P 2.51, N 2.61, F 2.77, Y 2.22, G 3.48, Q 2.69, M 2.04, E 3.04, C 4.36, L 2.36, A 2.15, T 1.91, D 2.2, H 2.68, K 2.69, W 2.47, V 2.06, I 2.05
R16: N 2.21, L 2.19, W 1.99, H 2.23, G 3.45, I 2.2, P 3.45, A 2.53, T 2.19, Y 1.72, K 3.51, V 2.27, D 2.22, C 1.91, F 1.93, M 2.21, E 2.55, Q 2.24, S 2.28
L22: P 3.85, T 2.46, N 2.09, G 3.06, R 3.97, I 2.82, V 2.12, K 4.67, W 3.03, H 2.94, A 3.3, M 2.28, D 4.94, Y 2.63, Q 1.55, C 2.71, E 4.92, S 2.17, F 4.44
R17: N 2.09, M 2.27, Q 2.5, I 1.84, Y 1.58, T 2.82, D 2.17, S 1.77, W 2.83, F 1.87, K 3.27, V 2.06, C 1.71, P 1.96, E 2.27, H 2.21, L 1.84, A 2.5, G 1.98
R18: N 1.76, V 1.83, P 1.7, T 1.7, K 2.83, L 2.68, M 2.31, A 1.69, C 2.29, G 3.74, W 2.31, E 2.38, S 2.26, F 1.57, H 2.18, Y 1.95, Q 1.78, I 1.34
I14: T 3.66, V 3.27, R 3.33, W 2.7, Q 2.53, A 2.64, K 3.78, F 2.2, L 2.56, E 2.46, C 2.38, Y 2.4, M 2.63, P 3.4, N 2.25, G 3.04, D 2.14, S 2.49, H 2.48
R21: P 2.72, K 3.27, N 3.99, W 2.53, E 3.46, G 2.36, C 4.79, V 2.98, I 2.93, A 4.48, M 2.87, D 3.91, T 3.85, F 3.04, H 3.59, L 2.6, S 4.35, Y 3.08, Q 3.62
V12: I 2.32, W 2.66, Q 3.24, T 2.75, N 2.28, H 2.69, P 2.98, G 3.26, K 3.25, S 3.24, R 3.62, M 2.47, F 2.6, Y 2.78, L 2.61
C19: Y 3.36, P 2.56, I 3.49, F 3.76, A 3.62, V 3.22, W 3.64, N 4.56, G 1.93, Q 4.39, L 3.54, H 4.39, D 3.44, M 3.23, T 3.63, K 4.77, R 4.59, S 4.15, E 1.83
